Measurements from paper doi:10.1101/201277 (bioRxiv, 2017).
Read-outs that look alike come from different tables or passages of the source.

B1: catabolite repressor activator protein (Cra), wild-type (natural protein, E. coli, UniProt P0ACP1 1-334, looked up)
chain: MKLDEIARLAGVSRTTASYVINGKAKQYRVSDKTVEKVMAVVREHNYHPNAVAAGLRAGRTRSIGLVIPDLENTSYTRIANYLERQARQRGYQLLIACSEDQPDNEMRCIEHLLQRQVDAIIVSTSLPPEHPFYQRWANDPFPIVALDRALDREHFTSVVGADQDDAEMLAEELRKFPAETVLYLGALPELSVSFLREQGFRTAWKDDPREVHFLYANSYEREAAAQLFEKWLETHPMPQALFTTSFALLQGVMDVTLRRDGKLPSDLAIATFGDNELLDFLQCPVLAVAQRHRDVAERVLEIVLASLDEPRKPKPGLTRIKRNLYRRGVLSRS

Assays:
[1] = target: the molecule itself; experiment: elution from a phosphocellulose column
[2] = target: T1, Cra (FruR) (Escherichia coli strain 3.300 …, UniProt P0ACP1 1-334); experiment: BLI
[3] = target: T2, Cra (FruR);FruK (fructose-1-kinase, 1-phosphofructokinase) (Escherichia coli strain 3.300 …, UniProt P0ACP1;P0AEW9 1-334;1-312, |); experiment: BLI
[4] = target: T2, Cra (FruR);FruK (fructose-1-kinase, …); experiment: BLI; remark: listed apart in the source
[5] = target: B1; experiment: pull-down
[6] = target: T1, Cra (FruR); experiment: filter binding
[7] = target: T2, Cra (FruR);FruK (fructose-1-kinase, …); experiment: BLI; remark: listed apart in the source

| Binder | binding result [2] | Kd [6] | further results |
| --- | --- | --- | --- |
| B1 | – | – | stoichiometry N [1]: 2 |
| pfkA operator (BLI) (dsDNA) DNA 1: ATGCATGTTGTGTGGCCTGAATCAATTCAGCTCACACAGGTGTCC DNA 2: GGACACCTGTGTGAGCTGAATTGATTCAGGCCACACAACATGCAT | binds | – | binding result [3]: binds |
| aceB operator (BLI) (dsDNA) DNA 1: ATGCATGTTGTGTGGGCTGAATCGCTTAACGTCACACAGGTGTCC DNA 2: GGACACCTGTGTGACGTTAAGCGATTCAGCCCACACAACATGCAT | binds | – | binding result [4]: binds |
| fructose-1-kinase (FruK), recombinant, separately purified (enzyme, E. coli, UniProt P0AEW9 1-312, looked up) MSRRVATITLNPAYDLVGFCPEIERGEVNLVKTTGLHAAGKGINVAKVLKDLGIDVTVGGFLGKDNQDGFQQLFSELGIANRFQVVQGRTRINVKLTEKDGEVTDFNFSGFEVTPADWERFVTDSLSWLGQFDMVCVSGSLPSGVSPEAFTDWMTRLRSQCPCIIFDSSREALVAGLKAAPWLVKPNRRELEIWAGRKLPEMKDVIEAAHALREQGIAHVVISLGAEGALWVNASGEWIAKPPSVDVVSTVGAGDSMVGGLIYGLLMRESSEHTLRLATAVAALAVSQSNVGITDRPQLAAMMARVDLQPFN | – | – | Kd [5]: < 100 nM |
| aceB operator (filter binding) (dsDNA) DNA 1: TGTTGTGTGGGCTGAATCGCTTAACGTCACACAGG DNA 2: CCTGTGTGACGTTAAGCGATTCAGCCCACACAACA | – | 1.7 nM | – |
| fruB proximal operator (BLI) (dsDNA) DNA 1: ATGCATGTTGTGTGGTTCTTGAAACGTTTCAGCTCACACAGGTCC DNA 2: GGACCTGTGTGAGCTGAAACGTTTCAAGAACCACACAACATGCAT | binds | – | binding result [7]: binds |
| fruB distal operator (filter binding) (dsDNA) DNA 1: TGTTGTGTGGGAGGCTGAATCGTTTCAATCACACAGG DNA 2: CCTGTGTGATTGAAACGATTCAGCCTCCCACACAACA | – | 0.018 nM | – |
| fruB proximal operator (filter binding) (dsDNA) DNA 1: TGTTGTGTGGTTCTTGAAACGTTTCAGCTCACACAGG DNA 2: CCTGTGTGAGCTGAAACGTTTCAAGAACCACACAACA | – | 0.018 nM | – |
